Source: patent US20100069815A1

Assays:
[1] = target: CD2 on CD2 positive cells in human peripheral blood (human) (UniProt P06729); assay: specificity control, cells recovered after the column (not adsorbed), without biotin block; flow cytometry; mean ± SD of 3
[2] = target: CD2 on CD2 positive cells in human peripheral blood (human) (UniProt P06729); assay: specificity control, cells recovered after the column (not adsorbed), with biotin block; flow cytometry; mean ± SD of 3
[3] = target: CD8 on CD8 positive cells in human peripheral blood (human) (UniProt P01732); assay: specificity control, cells recovered after the column (not adsorbed); flow cytometry; mean ± SD of 3
Chain of CD8 on CD8 positive cells in human peripheral blood (human) (P01732 22-235): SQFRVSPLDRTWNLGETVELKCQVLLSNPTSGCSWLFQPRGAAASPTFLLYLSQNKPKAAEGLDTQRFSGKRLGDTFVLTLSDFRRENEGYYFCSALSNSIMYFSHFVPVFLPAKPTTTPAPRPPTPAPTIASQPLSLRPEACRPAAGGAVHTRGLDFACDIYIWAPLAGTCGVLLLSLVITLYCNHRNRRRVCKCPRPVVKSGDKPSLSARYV

Chain of CD2 on CD2 positive cells in human peripheral blood (human) (P06729 25-351): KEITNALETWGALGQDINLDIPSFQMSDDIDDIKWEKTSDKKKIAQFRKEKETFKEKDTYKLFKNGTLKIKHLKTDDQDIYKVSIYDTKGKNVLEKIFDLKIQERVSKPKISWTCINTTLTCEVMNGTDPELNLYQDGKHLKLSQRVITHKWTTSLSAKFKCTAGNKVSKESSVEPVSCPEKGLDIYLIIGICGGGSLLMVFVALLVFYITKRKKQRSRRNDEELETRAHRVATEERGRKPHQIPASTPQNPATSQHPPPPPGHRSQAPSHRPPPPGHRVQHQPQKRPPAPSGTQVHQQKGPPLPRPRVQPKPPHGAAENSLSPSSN

Row | CD2 positive cell recovery rate (%) [1] [%] | CD2 positive cell recovery rate (%) [2] [%] | CD8 positive cell recovery rate (%) [3] [%] | Substance
1 | 76.4 | 78.7 | – | 4G7 scFv-SA
2 | – | – | 78.9 | Leu3a scFv-Normal
